In the DeepSol protein solubility set:

Assay: soluble on expression in E. coli; label from the status in PepcDB or PDB records

Soluble on expression in E. coli, not soluble:
MGSDKIHHHHHHMNVLIVSSSEGITLSLLRCLGLLNIKSHVISVWKSSGSSRFSRFCKNYISSFITESSQGAENIADVINDYCKQQKIDIIIPSGLLGTFLVALIKEKLSYSSVFPINDADKIYNLNNKWQFYHLLRQHNIPTPKTILIETPEQIKLLNLNFPVMVKPLDRGNGYGVKKIDSIVDLHGYISNASQINNLPILVQEYVFGYDILLNVLAENGKLIAWTINRRVPYFFEFFQDENILEIAHKIIDSCNYTGVANFDIRFDERSNSVKVIECNPRFWASFGASVSYGIDFVNLGILLAQGQKLPDNLKKEVTCTEPEKIPYPSPSQFLKGLLLAKYPFAAMKKISSDLAWQSILDPLPNIYEKIWNRLGIVNTHDGVMLNKLLSNSIRVKI
MGSDKIHHHHHHMNYRDELILQWVNQQGKASVIELAQHCDISVETIRRDLNKLANKGLLHRTHGGAVSNKTKDLGSFFQTRKHINATAKRHIAQKALDLLYENAVIGLDASSTSWYFAYLMPDIPCTVVTNSMFNINALVNKSNVKTIVTGGVYSAKYEAFYGPLSEYLLQRLHINFSVFSCSGIDKNGNIWESNELNASLKRKMMEASERAYLLIDSSKFEKTSLIQLADLSKINTIFSDRSLPDNLQKYCEQHDIMTVL
MGSDKIHHHHHHMPASSHQPLDLAKFTLSSPTEIAQHLSNIAKHGHMVTVFANKGKNFILTRLLEVDYQAGVFTFDWGAEEETNTQVLNSERNVFVCSPEGVKTQFVAGQISQVMVDDRPAFQCRLPEQVIKLQRREFFRIQTPLGSPVFCRIGDFNQRSIDLALFDISLGGMSLWLPGIDTPGFDIGQQYLQCSIDLKPFGTLALGIEVRHRLTARMRNGNEAMRIGCSYLNLSAPMETIIQRYVGFLERERRAMVG
MGSDKIHHHHHHMPKLVTWMNNQRVGELTKLANGAHTFKYAPEWLASRYARPLSLSLPLQRGNITSDAVFNFFDNLLPDSPIVRDRIVKRYHAKSRQPFDLLSEIGRDSVGAVTLIPEDETVTHPIMAWEKLTEARLEEVLTAYKADIPLGMIREENDFRISVAGAQEKTALLRIGNDWCIPKGITPTTHIIKLPIGEIRQPNATLDLSQSVDNEYYCLLLAKELGLNVPDAEIIKAGNVRALAVERFDRRWNAERTVLLRLPQEDMCQTFGLPSSVKYESDGGPGIARIMAFLMGSSEALKDRYDFMKFQVFQWLIGATDGHAKNFSVFIQAGGSYRLTPFYDIISAFPVLGGTGIHISDLKLAMGLNASKGKKTAIDKIYPRHFLATAKVLRFPEVQMHEILSDFARMIPAALDNVKTSLPTDFPENVVTAVESNVLRLHGRLSREYGSK
MGSDKIHHHHHHMPLDVDHLRIPALPQLFMELQNALGQPHVSYERIAAIVSKDPRLTASLLKLVNSPHFGFSTPIETVSRAVAASGIRRVSALALGTFVLGLYRERPPLVVDIQGFWLHSVGCGIAARLLAQRLGRSDPERFFVAGLLHDMGWLALCSAAPDRAERIVRRIQSTGCSCEEAERLELGTTHAELGATVLKTWNLPAFLIDVVRSHHAPLATVGDNPPVDGALEVHIADAVVKGMGIGGALDARIAPLDLDAVDTLGLSGHDIAAMTNGLVEQSQALSRLLQGD
MGSDKIHHHHHHMPLLLKGSCRCNAVRFEVESHTPVPFMLCYCSICRKQQGGGGFAINLGAAYETLNIRGKRSLGVYRAEIEDDEHPHCEVSTGERNFCRKCGSALWLYDPTWPELVHPFASAIDSDLPKPPSRVHLMLKYKANWVEPVIGKGDKTFDVYPEESIADWHKLTGMWVD
MGSDKIHHHHHHMPLMPTTLCSHAGCNARAVGNGVCRIHKPKAKRQAPNQIKQAEPAKLKRIDHRLSASQRGYDVRWRSARLLFLNDEPLCRHCITQDITKGADVVDHILPHRGNQELFWDQTNWQPLCYPCHSIKTTTVDNKLSDYDIAQLRQGGWGKK
MGSDKIHHHHHHMPLPRGSSLVRIPGNIPVGLDMKERLAYFEYDPLVSGQRAYAVAALLPQGFTRTLLPACVGSSGEALLPLLGYAAVGLKEGKIYVAAVQSDEHRKWHPHYYNTERLPAKINRMLKKYPGNMILHQLARCSLEYGCFTAQNIFYQRWEGGIPSMKACNAACIACISEDHCGTASPQNRLDFAPTVQEIVEVASEHLLRARDAIISFGQGCEGEPALNGKRLSQAIRRIRDLCAQGTINMNTNAGYCEGVKLMTDAGMDSMRVTIFSAIEENYMTYHCPQDYSLADVEYSITYAREHGVKISLNLLTFPGFTDRMEEVEALLEFVRKNQVDMIQFRNLNIDPEFLMRIFPGKSPVLGISNFVKLLESELPGVRIGSYTHPVHR
MGSDKIHHHHHHMPLSMNREVFITCAVTGSGGTQDRSPHVPRSPKEIAESAIAAAKAGAAIVHCHVRDPETGAPSRDLGLYREVTDRIRESDTDVVLNLTAGMGGDIVFGGVERPLPVTEDGTDMIGASARVAHVAECLPEICTLDCGTMNFAEADYVMTNTPGMLQAMGQMMTDLGVKPEIEAFDTGHLWYAKQLVKDGVLKSDALVQLCMGVPWGAPNDLNTFMAMVNNVPDDWNWSAFSLGRDQMAYVAASVLAGGNVRVGLEDNLYLDKGVLAENWQLVERAGTIVSNLGARVITPAEVREKLGLQKRAPITK
MGSDKIHHHHHHMPLTNHTPEDRVQDIFDHIAPQYDQMNSVISLGTHHWWRQRVMQAMTLHAGDFALDVCCGTGDWTIALAQAVGPAGHVVGFDFSGVMLQHATTKVRQAQLDDRITLRQGDAMQLPYPDNYFNVVTIGFGLRNVPDATQVLREMARVVKPGGQVVCLETSQPTNPLVHAGWQVYFGHVVPLMGRLAHHYQAYNYLQSSTHHFVSAKELSRLFTAAGLTQVHYDLFNLGAAAVHWGRKPY
MGSDKIHHHHHHMPLYRHLDLQSRYVTSRPVDVWLPAATGDQPLPVIYMHDGQNLFDPTLRADGEVWAVDQAIERLCATYNWPGAIVVGVWCTDQRWREYAPQKPFAALRQTRGWESIVERMGGEPVSDAYLSFLVEEVRPFVDRHYPTLPDASNTFLMGSSMGGLISLYGVCQYPDLFAGAGCLSTHWPAGGNLLVDELAALLPPAGRHRFYFDYGTVGLDAEYEPFQQRMDRLLEQAGYRHGHDWLTRKFPGAAHNEAAWRARVADVIAFLVLGRVAGE
MGSDKIHHHHHHMPNQVSKVNDLKHFFLHLIESGKLSHAYLFLGEDPREIHNLIAAISSRILREKTGDDVFENANLIEVKIPEGKKTLSVDQMRTVRDIFAEKSEHPQIAVIDDADKMTDSAANSILKFIEEPYDRQYIFLQARNRNRVLPTILSRVQLINIPKQKKSEISEQLVDKGIQEDEAIFISRISKSISQADDLLLDGFAINLKRSITEWLDEIFNRQEKSFAFVQSDLLNFVDTNEHQNIFNLALSSELSMRLEKAPNSVLADILDRWLVIYQRSRFTVSWQTMLESFTLEALRMVNGTEKFSNK
MGSDKIHHHHHHMPPNFHADTPLAQRMRPTTLDTIIGQEHLLAVGAPLRRLVEQGHLPSIILHGEAGIGKTTIAMLLADAVGRPFHALSALNTGVKQLREVLDSKDSLSFESPVVFIDEIHRFNKAQQDALLGAVESGDITLIGATTENPSFSVNNALLSRCQVYRLEPLTPEQISAVLQRALLEDNVLKQLSIDLQAQQTISQLAHGDARKSLNLLELAIQTADTKQSPIIIDDALVARVAQTALVRYDKDGEQHYDIVSAMIKSVRGSDPDAALYWMARMLVGGEPADFIARRLVILASEDIGNANPNALLLADAALRSVQSIGMPEARIILGQVVVYLATSAKSNSTYNAINAAMSLAEKDASPVPLHLRNGVTKLMRQQGYGQDYVYPHNYPNHYYAQNYLPDKLIGTRFYEFADNQREQHSKQFVDWLKSQAASND
MGSDKIHHHHHHMPQSDIFGKAYHEATKHSYLSVQLDPNYLDASTQPSAFKFYPKFYRRVKLNLDNPIHSFIWLTSAVTFEKVYNNVAYKLRVNPSAGALYPTEMYVQIRGMPKIVDGIYHLEVENNCLTLIYELIDDGLESYVIPTKCITGFIFLISSVYYRSSWKYKQRSLRYCLLDSGHHLGAVAASAYLHSRDIQLIFDFDKLALNTDLGFENKEFITGCAISGEIHEKQIRKLRLKVPFVCGTDYFEANQFIEDSYQATSVQPSHQQQLQQPCFDFEQDKFYQTVWNRRSIRRFRKEFISQEHYLYVLQLLQQPIPTESGEEIEIYSVIHRVEGMKSGLYKGANLVKAGDFSEHTGYLCVNQALARDCAVVLFFVSKYTSYQTAMQIAGFLGQRIYLGSNYVGIQCSGIGAFYDDETQEFLETHKDVLYATAIGT
MGSDKIHHHHHHMPTILEHLAALFDKDMRAVLSNPRAISMIANPSARVQMAAVRRDRSVICFIEKPTEKVQLTAVRNAPHNIHFITSPSERVQLTVIGIRPSYVGFIPNPTEKVQLKAVEKRPECIFLLQKPAEKVQLTAVLKDPRYLSAIREPTEKVQLAAVQKNPECIRHIAEPTEKVQHMAVQRSPDIFRQIRQPEESVRLAAVQAKGENIRYVSAPSEAVQLAAVRNDPMNIRYIENPTEKVQSVVLNADRDAAPFISSPTEEIKRLAMEMYGLRLENAAGKEAAAARTSETSGNSGKKATEGVAKKPSAKQVKEAVEKLDSEIREINREYFQATYEAQYSDNAAERESEISAAGKNREKKLVKAYEKFNSAAVPERKECNVGKIVKELRKERVAVENMKAGEWHSLMKGKAVQPPLVSGASGAAGKGSALMLARTPAGYALKAAGTINQASRQANAEM
MGSDKIHHHHHHMPVQQLFYKTAVPVSAKRHGDLSISSGKTYAFARHTNSIPLTALEFGPAAGTHPIVFAGTGEDVVPAIIVGTREDENLAVDADGNWQGTYIPAFARRYPFIFSLDKDKNQFTLLVDEEFEGANRDGRGERLFDSEGEQTGYLKSVLKFLQDYQAGFARTQAFCKRLKELDLLVPMQAEFSLGAGQKRTLGGFQVVDREKLKALSGEVLADLCRKDELECIYLHLSSMRHFRQMLERANTEASEAEPETDAADVAEPMAET
MGSDKIHHHHHHMQANKNIQKLTPYLSIPHKIWNSSQSNILKLDWNEATIPPSPYVIESIKKFLVNGNLNWYPNTKNLYLLDKIAEYTKQINSSFVELFEGSDSAHECIIDVFLDKCDKIGIVSPTYDNFRSRANGVGIETISFTLDDNFNLDFDSLEYFIHEKRIKLLYLCNPNNPTGKSYNIQKIKSLIINNPNVMFIIDEAYYEFTSQSVCDLVEQCNNLIITRTFSKAFALASFRIGYIISHPENIESINKLRNPKSVPMLSQIAANAALEDLQYMRDYVDEVSCARMEFVKFLNTLTTGGGGIFNDSVANFVLIQNENISLFVGFLEKEGIFIRNYSHLISKNCRISIGTRNQMSYVAEKIQEFAKKQGGFHLV
MGSDKIHHHHHHMQATMTDKNTRELLLDAATTLFAEQGIAATTMAEIAASVGVNPAMIHYYFKTRDSLLDTIIEERIGRIIDMIWEPVTGEEDDPLIMVRDLVNRIVNTCETMLWLPSLWIREIVNEGGALREKMLNNIPIDKMNKFSAKIAEGQKQGVINSGIDSRLLIGSIIGLTMLPLATAKLRDQIPTMKGLSSEDIVCHVTALLFTGLTNPSNSDDIKKQRT
MGSDKIHHHHHHMQEKKTLTFVVPAYNMTEYLERCVESLIASKRNDDIEVLIVDDGSSDGTLEMAKTFEARNPGIVRAIHQENKGHGGAVNTGIAAASGMYVKVVDADDWVGPESLEQVLAVLRDEVGKDDPLDMLVTNYVYDKVGKRNKHVVNFRHAMEPGKRLTWDDLGHFGLTEYILMHALVYRTAVVRESKMQLPEHTFYVDFIYAYQPFPWVKSLQYLDTPFYHYFIGRDGQSVQTDVMIRRVDQLRLVNQCMVHATPERGTVPDGLYRYMIHFLAIESSVASVFMILSREPENYEKKKAMWADIEAYSPTIYKDVRKKAMSRALNLRGSAGRFVIRKGYFLAEHVVGFN
